{
  "source": "patent US20050260697",
  "key": {"[1]": {"target": "human cardiac Troponin-I3 (UniProt P19429)", "sequence (P19429 whole entry, looked up)": "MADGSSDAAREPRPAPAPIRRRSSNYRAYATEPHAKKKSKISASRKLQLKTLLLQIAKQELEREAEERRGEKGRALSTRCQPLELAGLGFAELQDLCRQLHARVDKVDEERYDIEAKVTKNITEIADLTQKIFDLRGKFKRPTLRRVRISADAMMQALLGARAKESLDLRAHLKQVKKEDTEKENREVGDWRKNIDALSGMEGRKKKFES"}, "[2]": {"target": "human cardiac Troponin-T2 (UniProt P45379)"}},
  "data": [
    {"substance": "calpain-2", "values": [
      {"measurement": "in vitro protease digestion, breakdown products on gels", "setting": "[1]", "result": "human cardiac Troponin-T2 and Troponin-13 were cleaved by calpain-2 and caspase-3 proteases, producing unique breakdown products"},
      {"measurement": "stated: cleaves (breakdown bands on a gel)", "setting": "[1]", "result": "the Tn-I3 (24 kDa) band stays in both Calp-2 lanes (rising amount); arrows A and B mark two faint products below it at the higher-amount lane"},
      {"measurement": "in vitro protease digestion, breakdown products on gels", "setting": "[2]", "result": "human cardiac Troponin-T2 and Troponin-13 were cleaved by calpain-2 and caspase-3 proteases, producing unique breakdown products"},
      {"measurement": "stated: cleaves (breakdown bands on a gel)", "setting": "[2]", "result": "in the two Calpain-2 lanes (rising amount) the Troponin-T2 band at the 30 kDa mark fades and a band b appears between the 15 and 10 kDa marks; arrowheads a, b and c mark products between 15 and 10 kDa beside the higher-amount lane; none of these is in the untreated lane"}
    ]}
  ]
}
